According to PMC8349882 (Molecular cell, 2021):

Molecular target: the molecule itself
Test: crystal structure

B1: GLR3.4-S1S2 (isolated ligand-binding domain of GLR3.4) (domain or fragment, Arabidopsis thaliana)
chain: KPLRIGVPNRVSYTDYVSKDKNPPGVRGYCIDVFEAAIELLPYPVPRTYILYGDGKRNPSYDNLVNEVVADNFDVAVGDITIVTNRTRYVDFTQPFIESGLVVVAPVKEAGTIEGIDSLVTSNEPIGVQDGTFARNYLINELNILPSRIVPLKDEEQYLSALQRGPNAGGVAAIVDELPYIEVLLTNSNCKFRTVGQEFTRTGWGFAFQRDSPLAVDMSTAILQLSEEGELEKIHRKWLNYKHECS
For B1, the “stoichiometry N” value was 2.
